Among the data in the Human Domainome abundance scans (Beltran et al. 2025) are abundance fitness values, retold here.

B1: Homeobox protein cut-like 1, residues 548 to 629; numbered along this chain, P39880 (parent)
chain: GEEMDTAEIARQVKEQLIKHNIGQRIFGHYVLGLSQGSVSEILARPKPWNKLTVRGKEPFHKMKQFLSDEQNILALRSIQGR

± gives the uncertainty stated by the source.

In the data set the parent is B1. Description: abundance fitness (aPCA) (normalised: wild type 0, dead -1); higher = more abundant; growth selection in yeast, the domain comes from the species named. To be noted: Homo sapiens.
As to GEEMDTAEIARQVKEQLIKHNIGQRIFGHYVLGLSQGSVSEILARPKPWNKLTVRGKEPFHKMKQFLSDEQNILALRSIYGR, the abundance fitness is -0.188 ± 0.055.

In the case of GEEMDTAEIARQVKEQLIKHNIGQRIFGHYVLGLSQGSVSEILARPKPWNKLTVRGKEPFHKMKQFLSDEQNILALRSIQGK, the abundance fitness was determined as 0.123 ± 0.07.

As for GEEMDTAEIARQVKEQLIKHNIGQRIFGHYVLGLSQGSVSEILARPKPWNKLTVRGKEPFHKMKQFLSDEQNILALRSIQGN, the abundance fitness was determined as 0.076 ± 0.089.

On to GEEMDTAEIARQVKEQLIKHNIGQRIFGHYVLGLSQGSVSEILARPKPWNKLTVRGKEPFHKMKQFLSDEQNILALRSIQGA, for which the abundance fitness was determined as 0.013 ± 0.047.

For the variant GEEMDTAEIARQVKEQLIKHNIGQRIFGHYVLGLSQGSVSEILARPKPWNKLTVRGKEPFHKMKQFLSDEQNILALRSIQGS, the abundance fitness was found to be 0.011 ± 0.046.

Turning to GEEMDTAEIARQVKEQLIKHNIGQRIFGHYVLGLSQGSVSEILARPKPWNKLTVRGKEPFHKMKQFLSDEQNILALRSIQGT, the abundance fitness is -0.039 ± 0.052.

Consider GEEMDTAEIARQVKEQLIKHNIGQRIFGHYVLGLSQGSVSEILARPKPWNKLTVRGKEPFHKMKQFLSDEQNILALRSIQGC, for which the abundance fitness is -0.054 ± 0.076.

As for GEEMDTAEIARQVKEQLIKHNIGQRIFGHYVLGLSQGSVSEILARPKPWNKLTVRGKEPFHKMKQFLSDEQNILALRSIQGE, the abundance fitness amounted to 0.047 ± 0.05.

For GEEMDTAEIARQVKEQLIKHNIGQRIFGHYVLGLSQGSVSEILARPKPWNKLTVRGKEPFHKMKQFLSDEQNILALRSIQGM, the abundance fitness is -0.047 ± 0.056.

For the variant GEEMDTAEIARQVKEQLIKHNIGQRIFGHYVLGLSQGSVSEILARPKPWNKLTVRGKEPFHKMKQFLSDEQNILALRSIQGD, the abundance fitness is -0.092 ± 0.07.

On to GEEMDTAEIARQVKEQLIKHNIGQRIFGHYVLGLSQGSVSEILARPKPWNKLTVRGKEPFHKMKQFLSDEQNILALRSIQGV, for which the abundance fitness was 0.024 ± 0.046.

In the case of GEEMDTAEIARQVKEQLIKHNIGQRIFGHYVLGLSQGSVSEILARPKPWNKLTVRGKEPFHKMKQFLSDEQNILALRSIQGY, the abundance fitness is -0.079 ± 0.067.

Turning to GEEMDTAEIARQVKEQLIKHNIGQRIFGHYVLGLSQGSVSEILARPKPWNKLTVRGKEPFHKMKQFLSDEQNILALRSIQGW, the abundance fitness is -0.149 ± 0.049.

As to GEEMDTAEIARQVKEQLIKHNIGQRIFGHYVLGLSQGSVSEILARPKPWNKLTVRGKEPFHKMKQFLSDEQNILALRSIQGG, the abundance fitness amounted to 0.117 ± 0.035.

As for GEEMDTAEIARQVKEQLIKHNIGQRIFGHYVLGLSQGSVSEILARPKPWNKLTVRGKEPFHKMKQFLSDEQNILALRSIQGP, the abundance fitness amounted to 0.065 ± 0.063.

As for GEEMDTAEIARQVKEQLIKHNIGQRIFGHYVLGLSQGSVSEILARPKPWNKLTVRGKEPFHKMKQFLSDEQNILALRSIQGH, the abundance fitness is 0.063 ± 0.13.

With GEEMDTAEIARQVKEQLIKHNIGQRIFGHYVLGLSQGSVSEILARPKPWNKLTVRGKEPFHKMKQFLSDEQNILALRSIQGL, the abundance fitness was -0.06 ± 0.047.

Take GEEMDTAEIARQVKEQLIKHNIGQRIFGHYVLGLSQGSVSEILARPKPWNKLTVRGKEPFHKMKQFLSDEQNILALRSIQGQ: the abundance fitness was 0.172 ± 0.067.

As for GEEMDTAEIARQVKEQLIKHNIGQRIFGHYVLGLSQGSVSEILARPKPWNKLTVRGKEPFHKMKQFLSDEQNILALRSIQHR, the abundance fitness came out at 0.04 ± 0.08.

As for GEEMDTAEIARQVKEQLIKHNIGQRIFGHYVLGLSQGSVSEILARPKPWNKLTVRGKEPFHKMKQFLSDEQNILALRSIQLR, the abundance fitness is -0.097 ± 0.042.

Regarding GEEMDTAEIARQVKEQLIKHNIGQRIFGHYVLGLSQGSVSEILARPKPWNKLTVRGKEPFHKMKQFLSDEQNILALRSIQWR, the abundance fitness is -0.077 ± 0.052.

GEEMDTAEIARQVKEQLIKHNIGQRIFGHYVLGLSQGSVSEILARPKPWNKLTVRGKEPFHKMKQFLSDEQNILALRSIQDR: the abundance fitness came to 0.043 ± 0.04.

With GEEMDTAEIARQVKEQLIKHNIGQRIFGHYVLGLSQGSVSEILARPKPWNKLTVRGKEPFHKMKQFLSDEQNILALRSIQTR, the abundance fitness is 0.037 ± 0.047.

On to GEEMDTAEIARQVKEQLIKHNIGQRIFGHYVLGLSQGSVSEILARPKPWNKLTVRGKEPFHKMKQFLSDEQNILALRSIQER, for which the abundance fitness is 0.105 ± 0.048.

Consider GEEMDTAEIARQVKEQLIKHNIGQRIFGHYVLGLSQGSVSEILARPKPWNKLTVRGKEPFHKMKQFLSDEQNILALRSIQFR, for which the abundance fitness was -0.138 ± 0.059.

Turning to GEEMDTAEIARQVKEQLIKHNIGQRIFGHYVLGLSQGSVSEILARPKPWNKLTVRGKEPFHKMKQFLSDEQNILALRSIQAR, the abundance fitness was 0.044 ± 0.037.

Consider GEEMDTAEIARQVKEQLIKHNIGQRIFGHYVLGLSQGSVSEILARPKPWNKLTVRGKEPFHKMKQFLSDEQNILALRSIQVR, for which the abundance fitness turned out to be 0.024 ± 0.035.

As to GEEMDTAEIARQVKEQLIKHNIGQRIFGHYVLGLSQGSVSEILARPKPWNKLTVRGKEPFHKMKQFLSDEQNILALRSIQQR, the abundance fitness is 0.095 ± 0.054.

For the variant GEEMDTAEIARQVKEQLIKHNIGQRIFGHYVLGLSQGSVSEILARPKPWNKLTVRGKEPFHKMKQFLSDEQNILALRSIQNR, the abundance fitness came out at 0.117 ± 0.065.

For GEEMDTAEIARQVKEQLIKHNIGQRIFGHYVLGLSQGSVSEILARPKPWNKLTVRGKEPFHKMKQFLSDEQNILALRSIQCR, the abundance fitness worked out at 0.027 ± 0.047.

With GEEMDTAEIARQVKEQLIKHNIGQRIFGHYVLGLSQGSVSEILARPKPWNKLTVRGKEPFHKMKQFLSDEQNILALRSIQSR, the abundance fitness is -0.028 ± 0.038.

Turning to GEEMDTAEIARQVKEQLIKHNIGQRIFGHYVLGLSQGSVSEILARPKPWNKLTVRGKEPFHKMKQFLSDEQNILALRSIQKR, the abundance fitness was -0.068 ± 0.054.

On to GEEMDTAEIARQVKEQLIKHNIGQRIFGHYVLGLSQGSVSEILARPKPWNKLTVRGKEPFHKMKQFLSDEQNILALRSIQRR, for which the abundance fitness is -0.021 ± 0.036.

Turning to GEEMDTAEIARQVKEQLIKHNIGQRIFGHYVLGLSQGSVSEILARPKPWNKLTVRGKEPFHKMKQFLSDEQNILALRSIQPR, the abundance fitness is -0.103 ± 0.077.

Turning to GEEMDTAEIARQVKEQLIKHNIGQRIFGHYVLGLSQGSVSEILARPKPWNKLTVRGKEPFHKMKQFLSDEQNILALRSIQIR, the abundance fitness turned out to be 0.008 ± 0.057.

Take GEEMDTAEIARQVKEQLIKHNIGQRIFGHYVLGLSQGSVSEILARPKPWNKLTVRGKEPFHKMKQFLSDEQNILALRSIQYR: the abundance fitness was -0.163 ± 0.07.
